The source of these data is publication PMC5085863 (The Biochemical journal, 2016).

What all share (assay): FRET or BRET
Data set [1] deals with the molecule itself.
Data set [2] concerns the molecule itself. This is another data set of the same source.
Data set [3] deals with the molecule itself. The source holds these as a separate data set.
Data set [4] concerns the molecule itself. The source holds these as a separate data set.
Data set [5] deals with the molecule itself. The source holds these as a separate data set.
Data set [6] concerns the molecule itself. The source holds these as a separate data set.
Data set [7] concerns the molecule itself. The source holds these as a separate data set.

Where two headings read alike, the source gives them in different places.

B1: opsin tagged with the fluorescent proteins mTurquoise or SYFP2 (opsin-mTurquoise and opsin-SYFP2, co-expressed) (receptor, UniProt P15409 1-348, looked up)
chain: MNGTEGPNFYVPFSNVTGVVRSPFEQPQYYLAEPWQFSMLAAYMFLLIVLGFPINFLTLYVTVQHKKLRTPLNYILLNLAVADLFMVFGGFTTTLYTSLHGYFVFGPTGCNLEGFFATLGGEIALWSLVVLAIERYVVVCKPMSNFRFGENHAIMGVVFTWIMALACAAPPLVGWSRYIPEGMQCSCGIDYYTLKPEVNNESFVIYMFVVHFTIPMIVIFFCYGQLVFTVKEAAAQQQESATTQKAEKEVTRMVIIMVIFFLICWLPYASVAFYIFTHQGSNFGPIFMTLPAFFAKSSSIYNPVIYIMLNKQFRNCMLTTLCCGKNPLGDDDASATASKTETSQVAPA
Consider B1, for which the “tetramer to dimer ratio (ρ)” value in “FRET or BRET [1]” came out at 1.08; in “FRET or BRET [2]” it was 0.401; in “FRET or BRET [5]”, 484; in “FRET or BRET [7]”, 1.79. For the same protein, the “stoichiometry N” value in “FRET or BRET [3]” was 2; in the data set “FRET or BRET [4]” it was at least 12; in the data set “FRET or BRET [6]” it was 4. Further, the “KD tetramer to higher order oligomers” value in the data set “FRET or BRET [4]” was over 1150 molecules/μm^2.

A word on the stoichiometry N: it is a count of units in the complex or per binding partner.
